Patent publication US20220356230A1

B1: mAb11004 (antibody, V domains shown)
VH: QVQLVESGGGVVQPGRSLRLSCVASGFTFSIYGMDWVRQAPGKGLEWVAVISYDGSNKYYADSVKGRFTISRDNSKNTLYLQMNSLRPEDTAVYYCAKDREAAADAFDIWGQGTMVTVSS
VL: DIQMTQSPSSVSASVGDRVTITCRASQGISSWLAWYQQKPGKAPKLLIYAASSLHSGVPSRFSGSGSGTDFTLTISSLQPEDFATYYCQQANSFRLTFGGGTKVEIK
B2: mAb11006 (antibody, V domains shown)
VH: EVQLVESGGGLVQPGGSLRLSCAASGFIVSRNYMSWVRQAPGKGLEWVSVIYSGGSTFYADSVKGRFTISRHNSKNTLYLQMNSLKAEDTAVYYCARELRGYFDYWGQGTLVTVSS
VL: DIQLTQSPSFLSASVGDRVTITCWASQGISSYLAWYQQKPGKAPKLLIYAASTLQSGVPSRFSGSGSGTEFTLTISSLQPEDFATYYCQLLNSYPYTFGQGTKLEIK
B3: mAb11008 (antibody, V domains shown)
VH: EVQLVESGGGLVQPGGSLRLSCAASGFTVSSNYMTWVRQAPGKGLEWVSVIYSGGSTFYADSVKGRFTISRHNSENTLYLQMNSLRAEDTAVYYCARDLAAAGTDYWGQGALVTVSS
VL: DIQLTQSPSFLSASVGDRVTITCWASQGISSYLAWYQQKPGKAPKLLIYAASTLQSGVPSRFSGSGSGTEFTLTISSLQPDDFATYYCQHLNSYLYTFGQGTKLEIK
B4: mAb10998 (antibody, V domains shown)
VH: EVQLVESGGGLVHPGGSLRLSCAASGLTVSSNYMSWVRQAPGKGLEWVSVIYSGGSTYYADSVKGRFTISRHNSKNTLFLQMNSLRAEDTAVYYCARDRPITGTTLDVWGQGTTVTVSS
VL: DIQMTQSPSSLFASVGDRVTITCRASQSISSYLNWYQQKPGKAPKLLIYAASSLQSGVPSRFSGSGSGTDFTLTISSLQPEDFAFYYCQQTYSTPPITFGQGTRLEIK

Tests used:
Details in all cases: remark: other sources report otherwise
[1] = biological target: Bt-SARS-CoV-2 Spike Protein (RBD)(R319-F541).hFc (SARS-CoV-2)
[2] = biological target: Bt-SARS-CoV-2 Spike Protein (RBD)(R319-F541).mFc (SARS-CoV-2)
[3] = biological target: SARS-CoV-2 RBD extracellular domain expressed with a C-terminal myc-myc-hexahistidine tag (SARS-COV-2 RBD-MMH) (SARS-CoV-2)
[4] = biological target: SARS-CoV-2 RBD extracellular domain expressed with a C-terminal human IgG1 (SARS-COV-2 RBD-hFc) (SARS-CoV-2)
[5] = biological target: SARS-CoV-2 spike protein receptor binding domain (amino acids Arg319 to Phe541) expressed with the F (SARS-CoV-2)
[6] = biological target: Human SARS Coronavirus Spike Protein (Receptor Binding Domain) rabbit Fc (Sino 40150-V31B2) (Human SARS Coronavirus), P59594; assay: Luminex bead assay, antigen on microspheres, antibody supernatant
[7] = biological target: Human SARS Coronavirus Spike Protein (Receptor Binding Domain, His Tag) (Sino 40150-V08B2) (Human SARS Coronavirus), P59594; assay: as above
[8] = biological target: Human SARS Coronavirus Spike S1 Subunit Protein (His Tag) (Sino 40150-V08B1) (Human SARS Coronavirus), P59594; assay: as above
[9] = biological target: MERS-CoV (NCoV/Novel coronavirus) Spike Protein S1 Protein (aa 1-725, His Tag) (Sino 40069-V08B1) (MERS-CoV), K9N5Q8; assay: as above
[10] = biological target: MERS-CoV (NCoV/Novel coronavirus) Spike Protein fragment (RBD, aa 367-606, His Tag) (Sino 40071-V08B1) (MERS-CoV), K9N5Q8; assay: as above
[11] = biological target: SARS-CoV-2 Spike Protein (RBD)(R319-F541).hFc (SARS-CoV-2); assay: as above
[12] = biological target: SARS-CoV-2 Spike Protein (RBD)(R319-F541).mFc (SARS-CoV-2); assay: as above

Binder | Binding signal (MFI) [1] | Binding signal (MFI) [2] | Kd [3] | t½ [3] | Kd [4] | t½ [4] | SARS-CoV-2 RBD-hFc Binding to His presented ACE2 (Abs 450 nm) [5] | Binding signal (MFI) [6] | Binding signal (MFI) [7] | Binding signal (MFI) [8] | Binding signal (MFI) [9] | Binding signal (MFI) [10] | Binding signal (MFI) [11] | Binding signal (MFI) [12]
B1 | 7620 MFI | 4300 MFI | 16.6 nM | 3.7 min | 0.191 nM | 174 min | 0.211 Abs 450 nm | 5520 MFI | 740 MFI | 33 MFI | 17 MFI | 26 MFI | 4880 MFI | 4580 MFI
B2 | 3810 MFI | 1400 MFI | 4.1 nM | 31.5 min | < 0.0532 nM | > 1160 min |  | 615 MFI | 667 MFI | 339 MFI | 18 MFI | 15 MFI | 3980 MFI | 2870 MFI
B3 | 4110 MFI | 3050 MFI | 59.4 nM | 2.9 min | 0.715 nM | 100 min |  | 120 MFI | 174 MFI | 31 MFI | 18 MFI | 20 MFI | 2570 MFI | 4260 MFI
B4 | 467 MFI | 2230 MFI | 117 nM | 0.5 min | 1.58 nM | 22.2 min |  | 29 MFI | 37 MFI | 16 MFI | 19 MFI | 24 MFI | 1740 MFI | 2230 MFI
